We go through one molecule from US6465188, “Nucleic acid ligand complexes” (Gilead Sciences, Inc.).

The target of the data set is VEGF (vascular endothelial growth factor) (UniProt P15692-4 P15692-4:27-191). Briefly: competition; competition ELISA apparent ED50; reduction attributed to geometry of liposome display. As to conditions: chain copies: 2. For orientation: An ELISA detects its analyte on a solid surface through an enzyme-linked reagent.
Chain of VEGF (vascular endothelial growth factor) (P15692 other isoform, or with tags, fused parts or gaps): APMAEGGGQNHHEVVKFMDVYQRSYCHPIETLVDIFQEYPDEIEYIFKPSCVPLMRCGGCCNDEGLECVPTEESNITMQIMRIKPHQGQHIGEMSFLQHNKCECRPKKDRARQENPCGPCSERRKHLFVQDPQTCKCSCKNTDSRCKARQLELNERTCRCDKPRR

B1: NX278-Liposome (mixed)
mixed: TTTTACCCUGAUGGUAGACGCCGGGGUGTTTTT
modifications: 5'-dialkylglycerol (DAG), embedded in DSPC:cholesterol liposome; PS at 1-4 and 29-33; 2'-OMe at 5,13,16,17,20,23-26,28; 2'-NH2 at 6-9,12,15,19,21,22,27
Take B1: the EC50 (as a rule, the concentration giving half of the maximal effect) was roughly 100 nM.
